{"source": "paper PMC10729856", "target": "SidN (Lpg1083), recombinant with 6-His tag (Legionella pneumophila) (UniProt Q5ZWK2)", "experiment": "SEC"}
{"substance": "SidN (Lpg1083), recombinant with 6-His tag (from UniProt Q5ZWK2 1-227) (natural protein)", "values": [{"measurement": "stoichiometry N", "result": 2}]}
